From publication PMC3708604 (Methods in molecular biology (Clifton, N.J.), 2013) come the findings set out here.

One may read the Kd as the concentration at which binding is half-saturated. A low value points to higher affinity. What is called IC50 is the concentration needed to halve the response being measured. The low end stands for inhibition by little substance, the high end for a need for much substance.

B1: Full-length FLAG-epitope-tagged human ERα (receptor, UniProt P03372 1-595, looked up)
chain: MTMTLHTKASGMALLHQIQGNELEPLNRPQLKIPLERPLGEVYLDSSKPAVYNYPEGAAYEFNAAAAANAQVYGQTGLPYGPGSEAAAFGSNGLGGFPPLNSVSPSPLMLLHPPPQLSPFLQPHGQQVPYYLENEPSGYTVREAGPPAFYRPNSDNRRQGGRERLASTNDKGSMAMESAKETRYCAVCNDYASGYHYGVWSCEGCKAFFKRSIQGHNDYMCPATNQCTIDKNRRKSCQACRLRKCYEVGMMKGGIRKDRRGGRMLKHKRQRDDGEGRGEVGSAGDMRAANLWPSPLMIKRSKKNSLALSLTADQMVSALLDAEPPILYSEYDPTRPFSEASMMGLLTNLADRELVHMINWAKRVPGFVDLTLHDQVHLLECAWLEILMIGLVWRSMEHPGKLLFAPNLLLDRNQGKCVEGMVEIFDMLLATSSRFRMMNLQGEEFVCLKSIILLNSGVYTFLSSTLKSLEEKDHIHRVLDKITDTLIHLMAKAGLTLQQQHQRLAQLLLILSHIRHMSNKGMEHLYSMKCKNVVPLYDLLLEMLDAHRLHAPTSRGGASVEETDQSHLATAGSTSSHSLQKYYITGEAEGFPATV

For experiment [1], the target named is Full-length FLAG-epitope-tagged human SRC1a (human, UniProt Q15788-1 1-1441). Put plainly: fluorescence polarisation. For orientation: In fluorescence polarisation assays a small probe gives low polarisation when free and higher when bound to something large.
Chain of Full-length FLAG-epitope-tagged human SRC1a (Q15788 whole entry): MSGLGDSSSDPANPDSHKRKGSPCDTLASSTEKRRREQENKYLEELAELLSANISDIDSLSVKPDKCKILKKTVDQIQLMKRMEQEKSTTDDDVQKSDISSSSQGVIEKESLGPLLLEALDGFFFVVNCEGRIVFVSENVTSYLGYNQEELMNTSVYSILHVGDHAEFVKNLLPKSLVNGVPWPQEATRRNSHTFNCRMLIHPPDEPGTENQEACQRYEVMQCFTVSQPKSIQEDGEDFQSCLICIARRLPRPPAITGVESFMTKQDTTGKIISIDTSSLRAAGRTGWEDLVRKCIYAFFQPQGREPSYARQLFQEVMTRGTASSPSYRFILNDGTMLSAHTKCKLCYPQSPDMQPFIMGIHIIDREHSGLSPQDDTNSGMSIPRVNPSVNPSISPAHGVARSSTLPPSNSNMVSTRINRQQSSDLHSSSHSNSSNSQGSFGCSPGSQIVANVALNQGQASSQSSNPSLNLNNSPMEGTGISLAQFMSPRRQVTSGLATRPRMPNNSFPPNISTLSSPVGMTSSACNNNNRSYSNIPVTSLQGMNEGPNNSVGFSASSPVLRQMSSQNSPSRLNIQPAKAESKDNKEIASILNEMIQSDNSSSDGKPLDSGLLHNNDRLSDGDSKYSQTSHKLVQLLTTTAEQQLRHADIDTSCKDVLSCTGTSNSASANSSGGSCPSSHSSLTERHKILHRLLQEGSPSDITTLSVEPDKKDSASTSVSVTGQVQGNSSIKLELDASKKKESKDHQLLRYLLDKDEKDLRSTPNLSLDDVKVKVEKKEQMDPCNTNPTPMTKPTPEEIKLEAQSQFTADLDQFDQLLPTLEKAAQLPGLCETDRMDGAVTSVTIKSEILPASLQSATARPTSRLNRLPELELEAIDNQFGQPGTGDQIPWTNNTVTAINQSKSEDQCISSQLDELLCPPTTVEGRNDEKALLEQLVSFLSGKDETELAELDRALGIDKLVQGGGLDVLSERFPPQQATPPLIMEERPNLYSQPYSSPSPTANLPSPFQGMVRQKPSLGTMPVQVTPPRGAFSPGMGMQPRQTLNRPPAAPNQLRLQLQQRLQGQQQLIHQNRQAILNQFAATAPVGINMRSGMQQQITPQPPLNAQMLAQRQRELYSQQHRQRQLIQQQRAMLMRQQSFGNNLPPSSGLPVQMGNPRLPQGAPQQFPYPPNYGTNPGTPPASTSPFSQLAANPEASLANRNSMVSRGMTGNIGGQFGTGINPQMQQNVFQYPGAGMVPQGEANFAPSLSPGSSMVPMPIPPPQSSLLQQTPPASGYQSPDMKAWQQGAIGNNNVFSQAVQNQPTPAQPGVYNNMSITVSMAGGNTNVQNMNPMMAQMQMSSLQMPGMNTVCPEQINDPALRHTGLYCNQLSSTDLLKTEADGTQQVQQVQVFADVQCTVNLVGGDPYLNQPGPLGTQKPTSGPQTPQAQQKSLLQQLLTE
The target in experiment [2] is B1. Description: fluorescence polarisation.

In experiment [1], B1 yielded a Kd of approximately 14 nM.

B2: SRC1 NR Box 2 peptide (peptide)
peptide: LTERHKILHRLLQE
Turning to B2, the IC50 in experiment [2] is approximately 1000 nM.

B3: SRC1 NR Box 4 peptide (peptide)
peptide: QAQQKSLLQQLLTE
Molecule B3 came in with an IC50 in experiment [2] of approximately 3800 nM.

B4: FLAG-epitope-tagged human ERβ (receptor, UniProt Q92731 1-530, looked up)
chain: MDIKNSPSSLNSPSSYNCSQSILPLEHGSIYIPSSYVDSHHEYPAMTFYSPAVMNYSIPSNVTNLEGGPGRQTTSPNVLWPTPGHLSPLVVHRQLSHLYAEPQKSPWCEARSLEHTLPVNRETLKRKVSGNRCASPVTGPGSKRDAHFCAVCSDYASGYHYGVWSCEGCKAFFKRSIQGHNDYICPATNQCTIDKNRRKSCQACRLRKCYEVGMVKCGSRRERCGYRLVRRQRSADEQLHCAGKAKRSGGHAPRVRELLLDALSPEQLVLTLLEAEPPHVLISRPSAPFTEASMMMSLTKLADKELVHMISWAKKIPGFVELSLFDQVRLLESCWMEVLMMGLMWRSIDHPGKLIFAPDLVLDRDEGKCVEGILEIFDMLLATTSRFRELKLQHKEYLCVKAMILLNSSMYPLVTATQDADSSRKLAHLLNAVTDALVWVIAKSGISSQQQSMRLANLLMLLSHVRHASNKGMEHLLNMKCKNVVPVYDLLLEMLNAHVLRGCKSSITGSECSPAEDSKSKEGSQNPQSQ
B4 returned a Kd in experiment [1] of approximately 6 nM.
